The results in this text go back to paper PMC4351820.

This series addresses hSSB1 (SSB1, single-stranded DNA binding protein 1) (human, UniProt Q9BQ15 1-211). The series can be described thus: EMSA. (In general: A gel shift assay detects complexes by their altered migration in electrophoresis.)

Chain of hSSB1 (SSB1, single-stranded DNA binding protein 1) (Q9BQ15 whole entry): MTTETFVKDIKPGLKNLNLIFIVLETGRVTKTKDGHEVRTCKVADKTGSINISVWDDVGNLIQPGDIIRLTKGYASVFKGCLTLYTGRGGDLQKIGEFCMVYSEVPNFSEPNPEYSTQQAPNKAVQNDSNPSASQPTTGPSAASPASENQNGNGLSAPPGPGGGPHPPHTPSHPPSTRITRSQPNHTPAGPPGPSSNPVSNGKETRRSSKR

For the molecule TTAGGGTTAGGGTTAGGGTTAGGGTTAGGG (ssDNA) [G-rich telomeric strand (TTAGGG)5], the binding result is “binds”.
